Source: patent US12378324B2, “Anti superoxide dismutase 1 (SOD1) antibodies and use thereof” (B. G. NEGEV TECHNOLOGIES AND APPLICATIONS LTD., AT …, priority 2018, dated 2025)

Experiments:
Assay type in all cases: binding
[1] = test system: misfolded SOD1 variants (apo-SOD1^WT, holo-SOD1^WT, apo-SOD1^G93A, apo-SOD1^G85R); assay: ELISA of secreted scFv-Ab (supernatant of transfected HEK 293 cells) on SOD1 variants; conditions: FIG. 2, HEK 293 supernatant, anti-c-myc detection
From the text: Binding of secreted scFv-Ab (as supernatant of HEK 293 cells transfected with the vector expressing scFv-Ab) to SOD1 variant (apo-SOD1^WT, holo-SOD1^WT, apo-SOD1^G93A, and apo-SOD1^G85R), was quantified by enzyme-linked immunosorbent assay (ELISA).
The inventors have constructed a single-chain fragment variable antibody (scFv-mAb), representing a hybrid protein that comprises both heavy and light chain variable Ig regions of the anti-β6/β7-loop mAb connected by a short flexible linker (linker length 15-20 amino acids). The advantages of single-chain antibody are its small size, low immunogenicity and increased half-life (due to the reduced clearance via Fc-mediated microglia phagocytosis), and the ability to be used in a gene delivery system, such as recombinant adeno-associated virus, AAV6, for intra- or extracellular expression. AAV vectors have a broad cell type tropism, provide stable and safe gene expression and minimize immune response. […] Recent advances in AAV vector engineering enabled these vectors (AAV9) to be injected directly IV to obtain efficient CNS expression DNA sequences encoding the scFv-Ab of the invention were further optimized in terms of the codon usage for expression in mammalian cells (e.g., murine). […]

[2] = test system: misfolded familial ALS (fALS) mutants of SOD1 (SOD1^G93A and SOD1^G85R); assay: ELISA of hybridoma supernatants with SOD1 variants as coating antigens; conditions: FIG. 1B, SOD1^G93A and SOD1^G85R vs intact SOD1^WT
From the text: (§1) FIGS. 1A-1B are an image and a graph showing (1A) the surface pocket shaped by the two β6/β7 loops (arrows) in the intact SOD1^WT dimer, and (1B) the results of enzyme linked immunosorbent assay (ELISA) of supernatants of several hybridoma clones expressing anti-β6/β7-loop monoclonal antibody (mAb) using SOD1 variants as coating antigens. NC—negative control. WT—wild type; apo—WT in the absence of metals (Cu^2+ and Zn^2+); holo—WT in the presence of metals (Cu^2+ and Zn^2+); G93A—Glycine at position 93 was substituted to Alanine; G85R—Glycine at position 85 was substituted to Arginine; antigen peptide—peptide used to produce the disclosed mAb.
(§2) The loss of stabilizing metals, especially Zn^2+ is considered as the primary event which triggers the noxious structural transformation of SOD1, ultimately resulting in amyloid aggregation. Therefore, it is possible that the exposure of the β6/β7 loop epitope represents an early manifestation of the SOD1 noxious misfolding, and it is a common feature for both SOD1^WT and fALS SOD1^MUT. This early β6/β7 loop epitope is fundamentally different from the late epitopes of misfolded SOD1 such as those exposed on the dimer interface upon SOD1 monomerization; they correspond to the advanced stages of SOD1 misfolding and are apparently irreversible.

holo-SOD1^WT = holo-SOD1^WT (Homo sapiens, UniProt P00441); assay: as above; conditions: apo-SOD1^WT saturated with Cu2+ and Zn2+ by dialysis
holo-SOD1^WT, sequence (P00441 2-154 limits assumed): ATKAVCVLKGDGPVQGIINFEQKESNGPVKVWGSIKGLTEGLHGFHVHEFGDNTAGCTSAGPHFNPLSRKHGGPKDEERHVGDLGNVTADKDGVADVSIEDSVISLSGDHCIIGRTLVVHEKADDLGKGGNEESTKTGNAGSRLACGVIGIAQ
From the text: as §1, §2

apo-SOD1^WT = apo-SOD1^WT (Homo sapiens, UniProt P00441); assay: as above; conditions: WT in the absence of Cu2+ and Zn2+, similar to SOD1^G93A and SOD1^G85R
apo-SOD1^WT, sequence (P00441 2-154 limits assumed): as above
From the text: as §1, §2

| mAb binding to holo-SOD1^WT (holo-SOD1^WT) | Molecule | binding of scFv-Ab to SOD1 variants [1] | discrimination between the intact SOD1^WT and misfolded fALS mutants of SOD1 [2] | recognition of metal-free apo-SOD1^WT (apo-SOD1^WT) |
| --- | --- | --- | --- | --- |
| – | scFv-Ab: single-chain fragment variable antibody: heavy and light chain variable regions of the anti-β6/β7-loop mAb joined by a flexible linker (protein, left off: small tags and cut ends, single-chain fragment variable antibody: heavy and light chain variable regions of the anti-β6/β7-loop mAb joined by a flexible linker) scFv: QIQLVQSGPELKKPGESVSISCKASGYTFTDSAIHWVKQAPGKGLKYMGWINTYTGKPTYADDFKGRFVFSLEASASTAKLQISNLKSEDTATFFCARSVYSYDGTFYRYFLDAWGQGASVTVSSGGGGSGGGGSGGGGSDTVLTQSPALAVSPGEKVTISCRASESVSKHIHWFQQKSGQQPTLLIYLASSLESGVPARFSGSGSGTDFTLTIDPVEADDTATYYCQQSWNDPWTFGGGTKLELKGGGGS | selectively recognizes misfolded SOD1 variants | – | – |
| completely abolished mAbs binding | 6D12B10: rat monoclonal antibody against the β6/β7 loop of SOD1, raised with KLH-conjugated SE-21 peptide (antibody, V domains shown) VH: QIQLVQSGPELKKPGESVSISCKASGYTFTDSAIHWVKQAPGKGLKYMGWINTYTGKPTYADDFKGRFVFSLEASASTAKLQISNLKSEDTATFFCARSVYSYDGTFYRYFLDAWGQGASVTVSS VL: DTVLTQSPALAVSPGEKVTISCRASESVSKHIHWFQQKSGQQPTLLIYLASSLESGVPARFSGSGSGTDFTLTIDPVEADDTATYYCQQSWNDPWTFGGGTKLELK | – | complete discrimination | recognized metal-free apo-SOD1^WT as misfolded protein |
